This note sets out measurements from PMC6233052 (Molecular Biology of the Cell, 2018).

What all share (assay): co-IP
In experiment [1] the target is T1, HA-tagged constitutively active R-ras (G38V) (UniProt P10301 1-218, G38V).
T1 sequence: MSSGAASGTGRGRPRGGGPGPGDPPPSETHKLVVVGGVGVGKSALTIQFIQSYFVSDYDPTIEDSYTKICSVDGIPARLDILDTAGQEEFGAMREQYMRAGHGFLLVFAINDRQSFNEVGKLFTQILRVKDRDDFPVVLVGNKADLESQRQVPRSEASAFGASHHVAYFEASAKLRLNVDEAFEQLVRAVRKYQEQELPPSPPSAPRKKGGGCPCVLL

Another experiment has as its target T2, HA-tagged WT R-ras (UniProt P10301 1-218).
T2 sequence: T1 sequence with V38G

The target in experiment [2] is T3, HA-tagged CA R-ras mutant (P202A; P203A) (UniProt P10301 1-218, G38V | P202A | P203A).
T3 sequence: T1 sequence with P202A, P203A

The target in the next experiment is HA-tagged FliI LRR.
The target in experiment [3] is T4, HA-tagged full-length FliI (UniProt Q9JJ28 1-1271).
T4 sequence: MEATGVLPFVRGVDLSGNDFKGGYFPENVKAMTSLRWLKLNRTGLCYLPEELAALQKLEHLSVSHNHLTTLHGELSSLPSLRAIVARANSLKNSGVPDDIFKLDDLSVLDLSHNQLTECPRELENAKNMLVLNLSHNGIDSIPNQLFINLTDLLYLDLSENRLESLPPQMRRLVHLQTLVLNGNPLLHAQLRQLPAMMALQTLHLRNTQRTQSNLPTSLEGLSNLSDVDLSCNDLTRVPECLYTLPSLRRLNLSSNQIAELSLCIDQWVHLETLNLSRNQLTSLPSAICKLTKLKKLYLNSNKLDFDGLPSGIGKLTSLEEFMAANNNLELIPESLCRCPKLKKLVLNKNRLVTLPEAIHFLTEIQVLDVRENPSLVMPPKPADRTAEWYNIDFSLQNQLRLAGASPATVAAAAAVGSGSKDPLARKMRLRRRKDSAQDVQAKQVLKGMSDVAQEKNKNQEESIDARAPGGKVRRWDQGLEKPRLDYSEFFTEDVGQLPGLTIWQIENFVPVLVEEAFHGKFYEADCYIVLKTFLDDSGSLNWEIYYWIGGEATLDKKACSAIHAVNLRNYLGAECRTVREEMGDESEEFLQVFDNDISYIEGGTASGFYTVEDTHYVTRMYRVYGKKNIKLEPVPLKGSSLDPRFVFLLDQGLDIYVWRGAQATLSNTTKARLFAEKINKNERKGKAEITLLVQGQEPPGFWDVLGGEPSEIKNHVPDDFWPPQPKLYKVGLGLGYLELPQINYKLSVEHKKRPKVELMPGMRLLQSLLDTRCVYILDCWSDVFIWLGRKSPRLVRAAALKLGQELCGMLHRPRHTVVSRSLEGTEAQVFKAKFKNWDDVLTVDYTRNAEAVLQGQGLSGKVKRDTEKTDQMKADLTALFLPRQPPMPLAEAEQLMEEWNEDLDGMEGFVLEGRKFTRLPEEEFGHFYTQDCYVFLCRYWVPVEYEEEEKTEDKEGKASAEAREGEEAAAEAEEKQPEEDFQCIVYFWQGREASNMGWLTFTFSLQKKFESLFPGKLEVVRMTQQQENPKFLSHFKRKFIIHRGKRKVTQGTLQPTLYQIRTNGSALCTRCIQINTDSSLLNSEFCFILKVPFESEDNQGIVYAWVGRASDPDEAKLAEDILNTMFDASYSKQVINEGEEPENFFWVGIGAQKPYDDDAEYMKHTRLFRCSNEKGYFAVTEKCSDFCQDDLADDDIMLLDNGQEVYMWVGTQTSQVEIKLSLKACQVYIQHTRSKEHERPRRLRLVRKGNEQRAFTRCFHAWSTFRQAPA

Substitutions are numbered along the chain they refer to.

B1: Flightless I (FliI), endogenous (natural protein)
chain: T4 sequence
With B1, the “fold association compared with DN R-ras” value was determined as 3.5 fold in experiment [1] and 2.5 fold in the experiment with HA-tagged WT R-ras. Also, the “fold reduction of association compared with CA R-ras” value in experiment [2] was 4 fold.

B2: R-ras, endogenous (natural protein)
chain: MSSGAASGTGRGRPRGGGPGPRDPPPGETHKLVVVGGGGVGKSALTIQFIQSYFVSDYDPTIEDSYTKICTVDGIPARLDILDTAGQEEFGAMREQYMRAGNGFLLVFAINDRQSFNEVGKLFTQILRVKDRDDFPIVLVGNKADLENQRQVLRSEASSFSASHHMTYFEASAKLRLNVDEAFEQLVRAVRKYQEQELPPSPPSAPRKKDGGCPCVLL
As to B2, the fold association compared with FliI GLD was 4 fold with HA-tagged FliI LRR and 4.6 fold in experiment [3].
